US20170087188A1, “WNT INDUCED MOTILITY AND ENHANCED ENGRAFTMENT OF CELLS” (OTTAWA HOSPITAL RESEARCH INSTITUTE, priority 2014, published 2017)
Several values for one entry are separate records, joined by “and”; a condition that tells them apart may be missing. Equal values may be shown once. Entries after “also recorded” stand apart in the source; their conditions may differ.

Assays:
[1] = tested on: C2C12 cells; test: Scratch migration assay, C2C12 cells; assay type: cell-based; settings: Mitomycin-C treated, 24 h, Wnt 100 ng/mL, vs Veh. or empty vector
Protocol: Cellular polarization is indicative of increased motility (de Forges et al., 2012). Scratch assays were used to test whether Wnt7a and Fzd7 polarization affect cell motility. To exclude effects on the localization of cells arising from altered rates of proliferation, cells were treated with Mitomycin-C.
Following plasmid transfection or application of Wnts (R&D Systems), the cells were treated with Mitomycin-C for 2 h (50 μg/mL). Subsequently, the monolayer of cells was scraped in a straight line. The plates were then extensively washed with culture medium and incubated for 24 h before analysis. Analysis was performed using DAPI staining after matching the reference points and enumeration of DAPI-stained nuclei in the scar was performed. Unless otherwise indicated, Wnt7a and Wnt3a were used at a concentration of 100 ng/mL in scratch assays. Monodansylcadaverine (MDC, 30432, Sigma) was used in scratch assays at a concentration of 50 μm.

[2] = tested on: β-catenin signaling; test: TOP-flash luciferase reporter assay in C2C12 cells; assay type: cell-based; settings: different concentrations
Protocol: Different concentrations of Wnt7a were tested to exclude a dose dependent effect on β-catenin signaling, as measured by induction of TOP-flash activity in C2C12 cells.
The UBC-Fzd7-Flag (Fzd7-Flag), CMV-Fzd7-EYFP (Fzd7-YFP), CMV-Fzd3-EYFP (Fzd3-YFP), CMV-EYFP (YFP), CMV-EGFP-Rac1-wt (GFP-Rac1, 12980, Addgene), CMV-EGFP-Rac1-T17N (Rac1-DN, 12982, Addgene), CMV-EGFP-RhoA-T19N (RhoA-DN, 12967, Addgene) and CMV-EGFP-Cdc42-T17N (Cdc42-DN, 12976, Addgene) constructs have been described previously (Bentzinger et al., 2013a; Subauste et al., 2000; von Maltzahn et al., 2011). The Fzd7-tdtomato plasmid was generated by replacing the C-terminal YFP in Fzd7-YFP with tdTomato. For TOP-flash and FOP-flash the TCF reporter plasmid kit (17-285, Millipore) was used with the dual-luciferase reporter assay system (E1960, Promega). For normalization pGL4.74[hRluc/TK] (E6921, Promega) was cotransfected. For TOP-flash and FOP-flash assays the cells were transfected with GenJet lipofection reagent (SL100499, SignaGen). Otherwise, Lipofectamine 2000 (11668019, Life Technologies) was used for transfections.

[3] = tested on: mdx mice; test: Transplantation of Wnt-treated satellite cells into TA of mdx mice; assay type: in vivo, mouse
Protocol: It is known that poor migration of myogenic cells upon intramuscular injection is a major hurdle for the development of cell based therapies for muscular dystrophy (Skuk et al., 2007). The present inventors tested whether satellite cells treated with Wnt7a ex vivo prior to transplantation would enhance engraftment. 10,000 satellite cells were isolated from Pax7-zsGreen mice by fluorescent activated cell sorting (Bosnakovski et al., 2008), treated with Wnt7a for 3 h; washed extensively; and transplanted into the TA of immunosuppressed dystrophin-deficient mdx mice that were injured with cardiotoxin 2 days before the procedure (FIG. 6A).
(§1) Transplantation of zsGreen-expressing satellite cells or myoblasts into mdx mice was performed as previously described (Bentzinger et al., 2013c). Before transplantation the cells were treated for 3 h with Wnt7a, Wnt5a, or Wnt3a (R&D Systems) at a concentration of 50 ng/mL for freshly isolated satellite cells or with 100 ng/mL for cultured cells. Myoblasts expressing tdTomato were transplanted into uninjured muscles of C57BL/6 mice that were implanted with an osmotic pump (Alzet) delivering FK506 (Sigma) at 2.5 mg/kg/day 3 days prior to the transplantations. In some experiments, the injection site was marked with blue fluorescent microspheres (2 μm, Life Technologies) that were added at a concentration of 1:100 (vol/vol) to the cell suspension. 10 μl of the cell-microsphere suspension was injected into the TA of each mouse using a Hamilton syringe.
Muscles frozen in liquid nitrogen were cut into 12 μm cross-sections. Cross-sections and cells were either fixed with ethanol (100%) or 2% PFA for 5 min, permeabilized with 0.1% Triton/0.1 M glycine/PBS for 10 min, blocked with 5% horse serum in PBS for several hours, and incubated with specific primary antibody in blocking buffer overnight at 4° C. Samples were subsequently washed with PBS and stained with appropriate fluorescently labeled secondary antibodies for 1 h at room temperature. After washing with PBS, samples were mounted with Permafluor (Fisher). Antibodies were as follows: chicken anti-GFP (Abcam, ab13970), mouse anti-Pax7 (DSHB), mouse anti-Dystrophin (7A10, DSHB), mouse anti-Rac1 (05-389, Millipore), mouse anti-Tubulin (Sigma, T9026), rabbit anti-Dvl2 (3224, Cell Signaling), rabbit anti-zsGreen (Clontech, 632474), rabbit anti-Laminin (Sigma, L9393), rabbit anti-HA (Millipore, 07-221).

[4] = tested on: mdx mice; test: Transplantation of Wnt7a-treated human primary myoblasts into mdx mice; assay type: in vivo, mouse
Protocol: The effectiveness of Wnt7a on human myoblasts, in vivo, was tested using the same experimental paradigm that we previously used for mouse myoblasts (FIG. 7C). 100,000 human myoblasts were treated ex vivo with Wnt7a for 3 h, and transplanted into immunosuppressed mdx mice. […] (FIG. 7D). […] Moreover, the mean maximal distance between dystrophin-expressing myofiber clusters increased from 1.8 mm under the Veh. condition to 3.0 mm for Wnt7a treatment (FIG. 7F).
as §1

B1: Wnt7a: non-canonical Wnt polypeptide (R&D Systems) used to treat or load myogenic cells (protein, UniProt O00755 32-349, looked up)
Protein Wnt-7a: LGASIICNKIPGLAPRQRAICQSRPDAIIVIGEGSQMGLDECQFQFRNGRWNCSALGERTVFGKELKVGSREAAFTYAIIAAGVAHAITAACTQGNLSDCGCDKEKQGQYHRDEGWKWGGCSADIRYGIGFAKVFVDAREIKQNARTLMNLHNNEAGRKILEENMKLECKCHGVSGSCTTKTCWTTLPQFRELGYVLKDKYNEAVHVEPVRASRNKRPTFLKIKKPLSYRKPMDTDLVYIEKSPNYCEEDPVTGSVGTQGRACNKTAPQASGCDLMCCGRGYNTHQYARVWQCNCKFHWCCYVKCNTCSERTEMYTCK
increase in cell migration [1]: 443%
TOP-flash reporter activity [2]: does not activate the TOP-flash reporter at any tested concentration; also recorded: did not increase TOP-flash reporter activity
enhanced engraftment of zsGreen-expressing cells ([3]; 10,000 satellite cells treated 3 h (50 ng/mL), mdx TA, after 3 weeks, vs Veh.): 69%
numbers of endogenous satellite cells ([3]; Pax7+/zsGreen− cells in host mdx muscle, vs Veh.): not significantly changed; also recorded: not altered
hypertrophy of dystrophin-expressing myofibers (minimal feret) ([3]; myofibers fused with Wnt7a treated satellite cells, mdx TA): 116%
proportion of zsGreen+ engrafted cells that express Ki67 ([3]; satellite cells into mdx TA, vs Veh.): do not show more Ki67 staining; also recorded: did not alter
maximal distance between clusters of dystrophin-expressing myofibers ([3]; satellite cells treated 3 h, mdx TA, average): 3.7 mm
increase in number of myofibers expressing dystrophin ([3]; satellite cells treated 3 h, mdx TA, vs Veh.): 486%
increase in the number of dystrophin-expressing myofibers ([4]; 100,000 human myoblasts treated ex vivo 3 h, immunosuppressed mdx mice, compared to Veh.): 226% and > 200%
mean maximal distance between dystrophin-expressing myofiber clusters ([4]; human myoblasts treated ex vivo 3 h, mdx mice): 3.0 mm
increase in fiber feret ([4]; myofibers fused to Wnt7a-treated human myoblasts, mdx mice): 29%
